Results as given in paper PMC3201873.

Assays:
[1] = target: full-length GyrB from M. tuberculosis (M. tuberculosis); assay: far-Western, overlay or dot blot
[2] = target: GyrA–SBP (GyrA fused to a Streptavidin-Binding Peptide) (M. tuberculosis) (UniProt P9WG47); assay: SPR

Chain of full-length GyrB from M. tuberculosis (M. tuberculosis) (A5TY73 whole entry, the tested form may be a part): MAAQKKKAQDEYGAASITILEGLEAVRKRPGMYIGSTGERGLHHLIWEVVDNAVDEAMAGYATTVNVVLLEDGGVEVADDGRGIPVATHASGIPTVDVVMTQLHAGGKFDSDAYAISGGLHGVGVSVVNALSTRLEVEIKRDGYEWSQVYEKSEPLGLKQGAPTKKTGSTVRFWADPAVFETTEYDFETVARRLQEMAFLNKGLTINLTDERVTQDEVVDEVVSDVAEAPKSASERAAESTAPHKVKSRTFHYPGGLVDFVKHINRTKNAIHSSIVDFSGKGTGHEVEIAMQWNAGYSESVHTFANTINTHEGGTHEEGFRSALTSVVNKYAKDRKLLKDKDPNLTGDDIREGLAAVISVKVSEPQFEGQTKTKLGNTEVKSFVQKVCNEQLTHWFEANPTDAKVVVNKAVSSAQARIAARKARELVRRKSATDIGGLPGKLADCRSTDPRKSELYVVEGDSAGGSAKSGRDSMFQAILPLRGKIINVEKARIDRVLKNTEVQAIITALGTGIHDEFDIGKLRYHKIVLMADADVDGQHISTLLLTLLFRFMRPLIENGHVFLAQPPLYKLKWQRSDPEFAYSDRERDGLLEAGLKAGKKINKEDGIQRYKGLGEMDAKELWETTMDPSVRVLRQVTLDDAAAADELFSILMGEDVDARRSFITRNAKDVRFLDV

Row | Substance | fold stronger with negatively supercoiled pBR322 than without DNA [1] | Ka [2] | koff [2]
1 | GyrA–SBP (GyrA fused to a Streptavidin-Binding Peptide) (from UniProt P9WG47 1-838) (natural protein) | 9 fold | – | –
2 | full-length GyrB from M. tuberculosis (natural protein) | – | 6.2e+07 M⁻¹ | 0.00101 s⁻¹
